Results on eight molecules are retold here after patent EP4667489A1 (Kyinno Biotechnology Co., Ltd., dated 2025).

Residue numbers refer to the chain shown, from its start. Numbers in names are those of the source.

Assay [1] has as its target T1, PD1-mFc (fusion protein of the human PD1 extracellular domain and mouse IgG2a-Fc) (human; mouse, UniProt Q15116 25-170).
T1 construct: extracellular domain; not shown: mouse IgG2a-Fc, Genbank AAH31470.1
The experiment in a line: flow cytometry, blocking of PD1-mFc binding to 293T-PDL1 cells.

For assay [2], the target named is T2, human PD1 expressed on 293T-PD1 cells (human, UniProt Q15116 25-288).
T2 construct: whole, on cells; 293T cells stably expressing human PD1 (Kyinno KC-0204); also called PD1-expressing cells; Jurkat NFAT-PD1-luc cells
T2 sequence (Q15116 25-288): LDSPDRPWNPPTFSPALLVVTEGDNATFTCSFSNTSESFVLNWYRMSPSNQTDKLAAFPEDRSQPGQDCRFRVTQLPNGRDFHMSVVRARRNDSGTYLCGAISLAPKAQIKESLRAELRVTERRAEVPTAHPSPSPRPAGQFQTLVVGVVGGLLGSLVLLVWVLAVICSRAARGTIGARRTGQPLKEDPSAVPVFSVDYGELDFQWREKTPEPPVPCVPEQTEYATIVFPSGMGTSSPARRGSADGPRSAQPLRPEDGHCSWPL
The assay can be described thus: flow cytometry on 293T-PD1 cells. In general terms: Flow cytometry measures light scatter and fluorescence of single cells or particles in a stream.

The target in assay [3] is T3, LAG3-mFc (fusion protein of the human LAG3 extracellular domain and mouse IgG2a-Fc) (human; mouse, UniProt P18627 23-450).
T3 construct: extracellular domain; also called human LAG3-mFc; not shown: mouse IgG2a-Fc, Genbank AAH31470.1
T3 sequence (looked up): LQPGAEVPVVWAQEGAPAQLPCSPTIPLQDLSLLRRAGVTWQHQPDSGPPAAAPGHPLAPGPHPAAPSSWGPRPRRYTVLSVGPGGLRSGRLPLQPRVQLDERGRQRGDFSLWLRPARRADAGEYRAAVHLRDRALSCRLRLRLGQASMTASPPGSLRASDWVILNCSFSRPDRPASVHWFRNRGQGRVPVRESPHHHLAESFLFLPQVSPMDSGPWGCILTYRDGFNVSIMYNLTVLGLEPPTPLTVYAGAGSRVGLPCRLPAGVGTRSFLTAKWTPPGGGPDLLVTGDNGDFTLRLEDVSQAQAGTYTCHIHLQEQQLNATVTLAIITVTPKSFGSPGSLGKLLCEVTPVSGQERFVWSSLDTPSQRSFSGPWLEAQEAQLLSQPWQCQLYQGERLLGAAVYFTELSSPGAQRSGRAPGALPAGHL
The experiment in a line: flow cytometry, blocking of LAG3-mFc binding to Daudi cells.

Assay [4] addresses T4, human LAG3 expressed on 293T-LAG3 cells (human, UniProt P18627 23-525).
T4 construct: whole, on cells; 293T cells stably expressing human LAG3 (Kyinno KC-0214); also called LAG3-expressing cells
T4 sequence (looked up): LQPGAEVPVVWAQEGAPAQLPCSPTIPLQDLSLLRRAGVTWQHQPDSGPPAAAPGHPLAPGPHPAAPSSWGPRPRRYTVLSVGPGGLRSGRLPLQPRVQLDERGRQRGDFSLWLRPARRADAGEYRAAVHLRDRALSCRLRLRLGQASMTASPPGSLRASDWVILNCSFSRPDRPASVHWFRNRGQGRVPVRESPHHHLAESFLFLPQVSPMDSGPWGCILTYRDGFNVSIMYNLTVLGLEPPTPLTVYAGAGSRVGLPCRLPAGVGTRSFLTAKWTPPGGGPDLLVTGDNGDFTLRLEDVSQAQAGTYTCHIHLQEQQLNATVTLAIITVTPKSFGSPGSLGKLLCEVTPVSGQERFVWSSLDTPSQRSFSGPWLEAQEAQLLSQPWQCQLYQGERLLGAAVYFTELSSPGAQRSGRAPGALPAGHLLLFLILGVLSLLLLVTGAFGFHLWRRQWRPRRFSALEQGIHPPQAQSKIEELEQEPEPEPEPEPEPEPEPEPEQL
The experiment in a line: flow cytometry on 293T-LAG3 cells.

Assay [5] addresses T5, PDL1-His (Kyinno, Cat No.: KP-1022) (UniProt Q9NZQ7 19-238, limits assumed).
T5 construct: not shown: His tag
The assay can be described thus: BLI (ForteBio Octet), PDL1-His as mobile phase. (In BLI a coated tip is dipped into the sample, and binding shifts an interference pattern.)

The target in assay [6] is T6, PDL1-mFc (fusion protein of the human PDL1 extracellular domain and mouse Fc; Kyinno, Cat No.: KP-1008) (human; mouse, UniProt Q9NZQ7 19-238).
T6 construct: extracellular domain; bought; also called human PDL1-mFc; not shown: mouse Fc
T6 sequence (Q9NZQ7 19-238): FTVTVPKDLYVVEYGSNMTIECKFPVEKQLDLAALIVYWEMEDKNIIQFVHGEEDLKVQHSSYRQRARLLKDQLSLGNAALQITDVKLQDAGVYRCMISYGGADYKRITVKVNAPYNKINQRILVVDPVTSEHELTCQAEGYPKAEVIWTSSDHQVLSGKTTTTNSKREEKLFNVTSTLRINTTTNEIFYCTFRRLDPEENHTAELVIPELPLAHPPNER
The assay can be described thus: flow cytometry, blocking of PDL1-mFc binding to 293T-PD1 cells.

Assay [7] deals with T7, human PDL1 expressed on 293T-PDL1 cells (human, UniProt Q9NZQ7 19-290).
T7 construct: whole, on cells; in the signalling assays PDL1 stood on 293T OS8-hPDL1 cells (Kyinno KC-1148); also called PDL1-expressing cells; 293T OS8-hPDL1 cells
T7 sequence (Q9NZQ7 19-290): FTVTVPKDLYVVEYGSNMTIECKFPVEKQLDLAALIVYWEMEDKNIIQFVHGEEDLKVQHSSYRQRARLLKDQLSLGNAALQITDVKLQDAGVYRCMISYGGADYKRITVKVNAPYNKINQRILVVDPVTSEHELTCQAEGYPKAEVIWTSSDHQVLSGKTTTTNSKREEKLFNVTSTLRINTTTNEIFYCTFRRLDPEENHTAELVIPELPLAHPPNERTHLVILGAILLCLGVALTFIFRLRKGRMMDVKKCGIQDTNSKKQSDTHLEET
The experiment in a line: flow cytometry on 293T-PDL1 cells.

Assay [8] addresses T8, human EGFR expressed on CT26-EGFR cells (human, UniProt P00533 25-1210).
T8 construct: whole, on cells; CT26 cells stably expressing human EGFR (Kyinno KC-1451); also called EGFR-expressing cells; 293T-NFAT-Luc2-EGFR cells
The assay can be described thus: flow cytometry, blocking of EGF-mFc binding to CT26-EGFR cells.

Assay [9] concerns the target T8, human EGFR expressed on CT26-EGFR cells. The assay can be described thus: flow cytometry on CT26-EGFR cells.
For assay [10], the target named is T7, human PDL1 expressed on 293T-PDL1 cells. The assay can be described thus: cell-based or functional assay.
For assay [11], the target named is T8, human EGFR expressed on CT26-EGFR cells. The assay can be described thus: cell-based or functional assay.
In assay [12] the target is T9, EGFR-His (Kyinno, Cat No.: KP-1150) (UniProt P00533 25-645, limits assumed).
T9 construct: bought; not shown: His tag
The experiment in a line: BLI (ForteBio Octet), EGFR-His as mobile phase.

Assay [13] concerns the target T10, LAG3-His (ACRO, Cat No.: LA3-H5222) (UniProt P18627 23-450).
T10 construct: bought protein; not shown: His tag
T10 sequence (looked up): T3 sequence (looked up)
The assay can be described thus: BLI (ForteBio Octet), LAG3-His as mobile phase.

For assay [14], the target named is T11, PD1-His (Kyinno, Cat No.: KP-1023) (UniProt Q15116 25-167, limits assumed).
T11 construct: bought protein; not shown: His tag
T11 sequence (Q15116 25-167 limits assumed): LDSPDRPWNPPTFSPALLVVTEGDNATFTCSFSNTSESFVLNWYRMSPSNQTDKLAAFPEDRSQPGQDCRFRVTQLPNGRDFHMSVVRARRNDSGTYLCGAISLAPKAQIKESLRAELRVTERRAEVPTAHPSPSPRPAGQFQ
The assay can be described thus: BLI (ForteBio Octet), PD1-His as mobile phase.

T1 sequence (Q15116 25-170): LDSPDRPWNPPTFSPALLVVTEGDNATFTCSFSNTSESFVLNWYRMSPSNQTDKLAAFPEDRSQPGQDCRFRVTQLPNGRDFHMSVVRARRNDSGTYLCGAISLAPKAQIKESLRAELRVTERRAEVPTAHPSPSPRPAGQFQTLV
T5 sequence (Q9NZQ7 19-238 limits assumed): as the sequence (Q9NZQ7 19-238) above

B1: KA-1773 M107D12-10CLC1-hIgG4M (antibody, V domains shown)
VH: QVQLKESGGGLVKPGGSLKLSCAASGFTFSDYGMHWVRQAPEKGLEWVAYISSGSYTIYYADTVRDRFTISRDSAKNTLFLQMTSLRSEDTAMYYCVRRGPGYFGSTALDYWGQGTTLTVSS
VL: QIVLTQSPAIMSASPGEKVTMTCSATSGVSYMHWYQQKSGTSPKRWIYDTSRLASGVPARFSGSGSGTSYSLTISSMEAEDAATYYCQQWSSNPPYTFGSGTKLEIKR
notes: anti-PD1 chimeric antibody, human IgG4 (S228P) / kappa
By IC50 is commonly meant the concentration that gives 50% inhibition. Lower therefore signals higher potency. For orientation: EC50 means the midpoint of the concentration-response curve. Read a high EC50 as weaker potency. B1 showed an IC50 in assay [1] of 0.256 µg/mL. Further, the EC50 in assay [2] worked out at 0.265 µg/mL.

B2: KA-1728 M28G2-7CLC1-hIgG4M (antibody, V domains shown)
VH: DVKLQESGPGLVKPSQSLSLTCSVTGYSFTSGYYWNWIRLFPGNKLEWMGYVSYFGTNNYNPSLKNRFSITRDTSKNQFFLKLNSVSTEDTATYYCARGEEWDWSFDVWGTGTTVTVSS
VL: B1 VL
B2 had an IC50 in assay [3] of 0.805 µg/mL. The EC50 in [4] came to 0.118 µg/mL.

B3: KA-1774 M107D12-10CLC2-hIgG4M (antibody, V domains shown)
VH: B1 VH
VL: B1 VL with T26S, G28S, R52K
For the molecule B3, the IC50 in [1] is 0.218 µg/mL. Further, the EC50 in [2] was found to be 0.272 µg/mL.

B4: KA-1733 M28G2-7CLC2-hIgG4M (antibody, V domains shown)
VH: B2 VH
VL: B1 VL with T26S, G28S, R52K
Molecule B4 gave a half-inhibitory concentration (IC50) in [3] of 0.563 µg/mL. The same molecule gave an EC50 in assay [4] of 0.0649 µg/mL.

B5: KA-2073 H22A12×58E3-CLC02 (bispecific antibody, human IgG1, kappa)
heavy 1: not shown
heavy 2: not shown
light: DIQLTQSPSTLSASVGDRVTITCSATSSIGYMHWYQQKPGTSPKRWIYDTSKLASGVPSRFSGSGSGTEYTLTISSLQPDDFATYYCQLWSSDPPYTFGQGTRLEIKRTVAAPSVFIFPPSDEQLKSGTASVVCLLNNFYPREAKVQWKVDNALQSGNSQESVTEQDSKDSTYSLSSTLTLSKADYEKHKVYACEVTHQGLSSPVTKSFNRGEC
notes: EGFR×PDL1 bispecific; first heavy chain targets EGFR (hIgG1 Knob), second targets PDL1 (hIgG1 Hole); common light chain 3
A word on the Kd: it is the concentration at which binding is half-saturated. As a reminder, the koff is a measure of how fast the partners let go of each other. Read a low koff as slow dissociation. The term kon denotes the rate constant with which the complex forms. A low value points to slower complex formation. As to B5, the Kd in assay [5] is 0.602 nM; in [12], 5.64 nM. For the same molecule, the koff in [5] came out at 0.00126 s⁻¹; in assay [12] it was 0.00449 s⁻¹. In addition, the kon was 2.09e+06 M⁻¹ s⁻¹ in assay [5] and 796000 M⁻¹ s⁻¹ in assay [12]. Also, the figures for the IC50 in assay [6] and in [8] were 0.129 µg/mL and 0.0123 µg/mL, respectively. Besides, the values for the EC50 in assay [7] and in assay [9] were 0.521 µg/mL and 0.0358 µg/mL, respectively. Also, the “IC50, luciferase reporter (procedure of Example 30)” value in [10] came to 0.429 nM. In assay [11], the “IC50, luciferase reporter (procedure of Example 34)” value stood at 1.05 nM.

B6: KA-2072 H22A12×58E3-CLC01 (bispecific antibody, human IgG1, kappa)
heavy 1: not shown
heavy 2: not shown
light: DIQITQSPSSLSASVGDRVTITCSATSGVSYMHWYQQKPGKAPKRLIYDTSRLASGVPSRFSGSGSGTDYTLTISSLQPEDFATYYCQQWSSNPPYTFGQGTRLEIKRTVAAPSVFIFPPSDEQLKSGTASVVCLLNNFYPREAKVQWKVDNALQSGNSQESVTEQDSKDSTYSLSSTLTLSKADYEKHKVYACEVTHQGLSSPVTKSFNRGEC
notes: EGFR×PDL1 bispecific; first heavy chain targets EGFR (hIgG1 Knob), second targets PDL1 (hIgG1 Hole); common light chain 1
With B6, the figures for the dissociation constant (Kd) in assay [5] and in assay [12] were 0.464 nM and 4.21 nM, respectively. The koff came to 0.000426 s⁻¹ in assay [5] and 0.00295 s⁻¹ in assay [12]. Moreover, the on-rate constant (kon) in [5] was 918000 M⁻¹ s⁻¹; in assay [12], 701000 M⁻¹ s⁻¹. Besides, the values for the IC50 in assay [6] and in [8] were 0.122 µg/mL and 0.0155 µg/mL, respectively. Further, the concentration for a half-maximal effect (EC50) in assay [7] is 0.422 µg/mL; in [9], 0.0393 µg/mL. Besides, the “IC50, luciferase reporter (procedure of Example 30)” value in assay [10] was determined as 0.372 nM. Also, the “IC50, luciferase reporter (procedure of Example 34)” value in assay [11] worked out at 1.01 nM.

B7: KA-1782 H28G2-7V4-hIgG4M (antibody, V domains shown)
VH: QVQLQESGPGLVKPSETLSLTCTVSGYSFTSGYYWNWIRQPPGKGLEWIGYVSYFGTANYNPALKNRVTISRDTSKNQFSLKLSSVTAADTAVYYCARGEEWDWSFDVWGQGTTVTVSS
VL: DIQITQSPSSLSASVGDRVTITCSATSGVSYMHWYQQKPGKAPKRLIYDTSRLASGVPSRFSGSGSGTDYTLTISSLQPEDFATYYCQQWSSNPPYTFGQGTRLEIKR
notes: anti-LAG3 humanized antibody, human IgG4 (S228P) / kappa
In assay [13], B7 had a Kd of 0.174 nM, an off-rate constant (koff) of 0.000153 s⁻¹ and a kon of 881000 M⁻¹ s⁻¹. The molecule also displayed an IC50 in assay [3] of 0.476 µg/mL. In assay [4], this molecule gave an EC50 of 0.0674 µg/mL.

B8: KA-1807 H107D12-10V4-hIgG4M (antibody, V domains shown)
VH: B1 VH with K5V, K19R, V37I, E42G, T78S, F80Y, T84N, S88A, M93V, L118V
VL: B7 VL
notes: anti-PD1 humanized antibody, human IgG4 (S228P) / kappa; also called KA-1807 H107D12-10V4-hlgG4M
In assay [14], B8 registered a Kd of 6.96 nM, a koff of 0.00143 s⁻¹ and an on-rate constant (kon) of 205000 M⁻¹ s⁻¹. In assay [1], this molecule had a 50% inhibitory concentration (IC50) of 0.158 µg/mL. The molecule also came in with an EC50 in [2] of 0.193 µg/mL.
